B1: TPR t1 (parent)
chain: GACCAAUCUGCCCUCAGAGCUCGAGAACAUCUUCGGAUGCAGAGGAGGCAGGCUUCGGUGGCGCGAUAGCGCCAACGUCCUCAACCUCCAAUGCAUCCCACCACAUGAUGAUGCCUGAAGAGCCUUGGUUUUUUG

Variants of: B1
Assay: polymerase ribozyme fitness, log enrichment relative to wild type (log ratio); higher = more active; in vitro selection for triplet polymerase activity
Summary of the method: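 Input and output libraries were sequenced on Illumina after a single in vitro selection round, run in triplicate on PCR-built, transcribed mutant libraries of each subunit of a heterodimeric triplet polymerase ribozyme. Selection annealed libraries to a biotinylated primer, the partner subunit and triplets, incubated them frozen at −7 °C, then gel-excised extended constructs for streptavidin-bead capture and RT-PCR. Genotypes with ≥10 input reads and ≥1 read per output were kept. Fitness is the logarithm, taken in base 2, of genotype enrichment divided by wild-type enrichment, using inverse-variance-weighted replicate averages.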

Compared with G117U A118U, U7A C94U A95U C123U G127U is higher in “polymerase ribozyme fitness (log ratio)” value: -2.66 for the first, -1.38 for the second.

Compared with C3U C8A C20U C53U G58A G77A A90G C101U, A46U C49U A74U C102U is lower in “polymerase ribozyme fitness (log ratio)” value: -3.06 for the first, -4.53 for the second.

First: A29G C72U G135U
Second: G47C A90G G117C
The “polymerase ribozyme fitness (log ratio)” value of the first is higher: -1.91 for the first, -4.53 for the second.

C40A G63U U81A U129A and G107A U116C are within 0.2 log units of each other in “polymerase ribozyme fitness (log ratio)” value: -5.05 for the first, -5.17 for the second.

First: C12G A18G G44C G71C A84U
Second: G10A C94A C97U U106A
The “polymerase ribozyme fitness (log ratio)” value of the first is lower: -6.08 for the first, -0.642 for the second.

Compared with U7C A18C G42U G77U A84U, C82U C97A is lower in “polymerase ribozyme fitness (log ratio)” value: -2.98 for the first, -4.95 for the second.

Compared with C8U C12G G17C C80U A90U, C82G A95U A105G is lower in “polymerase ribozyme fitness (log ratio)” value: -2.49 for the first, -3.5 for the second.

First: G17A C73U
Second: U9G A50C G63C
The “polymerase ribozyme fitness (log ratio)” value of the first is lower: -2.84 for the first, -1.21 for the second.

Going from G51A C73G to G45U C70A, the “polymerase ribozyme fitness (log ratio)” value falls from -0.931 to -2.74.

Compared with G44A C99A C114A, U59C C123U is higher in “polymerase ribozyme fitness (log ratio)” value: -5.96 for the first, 1.16 for the second.

Going from C34U G65C G117C A121C to A50C G52U, the “polymerase ribozyme fitness (log ratio)” value rises from -7.56 to -2.09.

Compared with G71A C73G G110A, U81C U87C A100U is higher in “polymerase ribozyme fitness (log ratio)” value: -7.06 for the first, -1.38 for the second.

First: U7C C8G G61A C79A G110A
Second: C73A U131G
The “polymerase ribozyme fitness (log ratio)” value of the first is lower: -2.75 for the first, -0.242 for the second.

First: C56A G135U
Second: C11A G45U C64A U78A A95C G113U
The “polymerase ribozyme fitness (log ratio)” value of the first is higher: -1.7 for the first, -7.43 for the second.

Compared with C72A C76G C101A C115A, C70G U92C C123A is lower in “polymerase ribozyme fitness (log ratio)” value: -1.47 for the first, -5.06 for the second.

Compared with C12U C34A U106A U112C G120C C124G G128A, C28G G63A A84C A121U is higher in “polymerase ribozyme fitness (log ratio)” value: -5.07 for the first, -3.21 for the second.

Going from U125G to U21A C72G, the “polymerase ribozyme fitness (log ratio)” value rises from -1.01 to -0.599.

First: C8G U14C U32C G48A G52U A95U G110A
Second: U33C G61U
The “polymerase ribozyme fitness (log ratio)” value of the first is lower: -4.18 for the first, -3.04 for the second.

Compared with C79U U92G C115G, G113A C123G U129A is higher in “polymerase ribozyme fitness (log ratio)” value: -3.67 for the first, -1.16 for the second.

Compared with G60A C97G G120C, C4U A100U is higher in “polymerase ribozyme fitness (log ratio)” value: -4.18 for the first, -1.08 for the second.

Compared with C22U A75G, G10C C56U is higher in “polymerase ribozyme fitness (log ratio)” value: -3.55 for the first, -0.594 for the second.

Compared with G42U G60A G128C, G19C C72U A91U G113A is higher in “polymerase ribozyme fitness (log ratio)” value: -3.97 for the first, -0.96 for the second.

Compared with C12U C70U, G71C is lower in “polymerase ribozyme fitness (log ratio)” value: 0.3 for the first, -1.04 for the second.

Going from C15A A43U to C13G A18U A27G C53U C89A C104U, the “polymerase ribozyme fitness (log ratio)” value falls from -3.28 to -5.29.

Compared with C56A C72U C104A C124U, C72G G120A is higher in “polymerase ribozyme fitness (log ratio)” value: -0.00796 for the first, 0.223 for the second.

Compared with C56A G69U C79U A100U A103C, G23A G69U A90U C124U is lower in “polymerase ribozyme fitness (log ratio)” value: -3.37 for the first, -5.33 for the second.

Compared with U78G C86G C101U, G39A G63U is lower in “polymerase ribozyme fitness (log ratio)” value: -1.51 for the first, -2.24 for the second.

Going from A29G G44U A50U G69U to C12A A75G C114A, the “polymerase ribozyme fitness (log ratio)” value falls from -2.04 to -3.82.

First: A50C G69U
Second: C73G G113C C123U G135A
The “polymerase ribozyme fitness (log ratio)” value of the first is higher: -0.0602 for the first, -3.03 for the second.

First: G47A G60U
Second: A26U C64U C82A G93A
The “polymerase ribozyme fitness (log ratio)” value of the first is higher: -0.146 for the first, -4.48 for the second.

G45U A90C and G48C G127C are within 0.2 log units of each other in “polymerase ribozyme fitness (log ratio)” value: -1.56 for the first, -1.62 for the second.

Going from C11G G19A A43U to A43U A66C G71U, the “polymerase ribozyme fitness (log ratio)” value falls from -1.81 to -5.02.

Going from A6G U59C to U32A G45A A75U C88U U96C, the “polymerase ribozyme fitness (log ratio)” value falls from -0.609 to -5.82.

Going from A43G U59A C99U to C11A U96A, the “polymerase ribozyme fitness (log ratio)” value rises from -6.09 to -2.53.

First: A2U C12G G63A
Second: A46U G113A
The “polymerase ribozyme fitness (log ratio)” value of the first is lower: -3.14 for the first, -1.78 for the second.

Compared with A84C U96C, U9G C72U is higher in “polymerase ribozyme fitness (log ratio)” value: -0.0472 for the first, 0.16 for the second.

A5U G71A and A16C A27G G61A U112C are within 0.2 log units of each other in “polymerase ribozyme fitness (log ratio)” value: -1.5 for the first, -1.49 for the second.

Compared with C11A C80G C88U, U21A C89U G110A U112C is higher in “polymerase ribozyme fitness (log ratio)” value: -6.42 for the first, -2.24 for the second.

Compared with U7G G17C G44C G77U C94A, A37U C62U U96G is higher in “polymerase ribozyme fitness (log ratio)” value: -6 for the first, -0.183 for the second.

Compared with C98U U112G, A16G U21C G48A A100C C123A is lower in “polymerase ribozyme fitness (log ratio)” value: -3.32 for the first, -4.34 for the second.

Going from C40A U129C to A5U U21C C97U, the “polymerase ribozyme fitness (log ratio)” value rises from -1.74 to -1.38.

Going from U109C C115A to G19U U55G C114A U131A, the “polymerase ribozyme fitness (log ratio)” value rises from -3.11 to 2.05.
